Positions count from the first letter of the chain named. Values belong to the binder of their own block, whether it stands above or below them.
Columns and labels:
[1] = molecular target: T1, human IL-1α (human, UniProt P01583 113-271); assay: Table 62 IC50; RBA presumed
T1 construct: also called IL-1alpha; hIL-1α
T1 sequence (looked up): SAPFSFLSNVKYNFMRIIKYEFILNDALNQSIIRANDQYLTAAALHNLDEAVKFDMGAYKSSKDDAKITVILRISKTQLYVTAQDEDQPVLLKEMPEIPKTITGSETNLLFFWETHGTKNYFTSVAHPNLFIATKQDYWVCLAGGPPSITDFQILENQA

[2] = molecular target: T1, human IL-1α; assay: cell-based or functional assay

- IC50 [1]: > 500 nM
B1: ABT1-145 (other)
VL: DIQMTQSPSSLSASVGDRVTITCRASQDIDDGLAWYQQKPGKAPKLLIYRTSRLQSGVPSRFSGSGSGTDFTLTISSLQPEDFATYYCQPTWLPPCTFGQGTKVEIKR
notes: VK dAb

- IC50 [1]: > 1000 nM
B2: ABT1-172 (other)
VL: DIQMTQSPSSLSASVGDRVTITCRASQRIRNGLEWYQQKPGKAPKLLIWGSSRLQSGVPSRFSGSGSGTDFTLTISSLQPEDFATYYCAQTVWGPATFGQGTKVEIKR
notes: VK dAb

- IC50 [1]: 10 nM
B3: ABT1-141-7 (other)
VL: DIQMTQSPSSLSASVGDRITITCRASQWIQKQLAWYQLKPGKAPKLLIYSSSYLQSGVPSRFSGSGSGTDFTLTISSLQPEDFATYYCQQHLRVPFTFGQGTKVEIKR
notes: VK dAb

- IC50 [1]: 80 nM
B4: ABT1-141-23 (other)
VL: B3 VL with I19V, L38Q, H91Q, L92M, R93Q, V94P, F96R
notes: VK dAb

- IC50 [1]: 10 nM
B5: ABT1-141-14 (other)
VL: B3 VL with I19V, L38Q, K45R, H91N, R93S
notes: VK dAb

- IC50 [1]: 60 nM
B6: ABT1-141-21 (other)
VL: B3 VL with I19V, L38Q, H91Q, L92M, R93S, V94S, F96R
notes: VK dAb

- IC50 [1]: 20 nM
B7: ABT1-141-16 (other)
VL: B3 VL with I19V, T20A, L38Q, Q90H
notes: VK dAb

- IC50 [1]: 30 nM
B8: ABT1-141-22 (other)
VL: B3 VL with I19V, L38Q, H91Q, L92M, R93A, V94P, F96R
notes: VK dAb

- IC50 [1]: 100 nM
B9: ABT1-144 (other)
VL: DIQMTQSPSSLSASVGDRVTITCRASQRIKKYLAWYQQKPGKAPRLLIYRSSQLQSGVPSRFSGSGSGTDFTLTISSLQPEDFATYYCQQSFKRPVTFGQGTKVEIKR
notes: VK dAb

- IC50 [1]: > 500 nM
B10: ABT1-143 (other)
VL: DIQMTQSPSSLSASVGDRVTITCRASQRIDRHLSWYQQKPGKAPKLLIYKTSKLQSGVPSRFSGSGSGTDFTLTISSLQPEDFATYYCQQLHAKPFTFGQGTKVEIKR
notes: VK dAb

- IC50 [1]: 200 nM
B11: ABT1-159 (other)
VL: DIQMTQSPSSLSASVGDRVTITCRASSPIGMDLFWYQQKPGKAPRLLIDGVSGLQSGVPSRFSGSGSGTDFTLTISSLQPEDFATYYCSQHWPAPLTFGQGTKVEIKR
notes: VK dAb

- ND50 [2]: 7000 nM
B12: ABT1-22 (other)
VH: EVQLLESGGGLVQPGGSLRLSCAASGFTLKAYNMSWVRQAPGKGLEWVSLISSTGMFTDYADSVKGRFTISRDNSKNTLYLQMNSLRAEDTAVYYCAKWGVRRGLYFDYWGQGTLVTVSS

- ND50 [2]: 1000 nM
B13: ABT1-3 (other)
VL: DIQMTQSPSSLSASVGDRVTITCRASQSIWTELKWYQQKPGKAPKLLIYGASLLQSGVPSRFSGSGSGTDFTLTISSLQPEDFATYYCQQFAYFPFTFGQGTKVEIKR

- ND50 [2]: > 20000 nM
B14: ABT1-10 (other)
VL: B13 VL with W30V, T31P, E32N, K34R, L53T, F91G, A92Y, Y93V, F94Y, F96G

- ND50 [2]: 4000 nM
B15: ABT1-9 (other)
VL: B13 VL with W30G, T31S, E32S, K34L, G50L, L53R, A92R, Y93S, F94T, F96N

- ND50 [2]: 0.05 nM
B16: ABT1-95-133 (other)
VL: DIQMTQSPSSLSASVGDRVTITCRASQPIVRNLRWYQQKPGKAPKLLIYSSSYLEPGVPSRFSGSGSGTDFTLTISSLQPEDFATYHCRQGYRWPVTFGQGTKVEIKR

- ND50 [2]: 0.1 nM
B17: ABT1-95-136 (other)
VL: B16 VL with Q79H, F83L, R89Q, R93G

- ND50 [2]: 0.05 nM
B18: ABT1-95-163 (other)
VL: B16 VL with Q27R, R89Q

- ND50 [2]: 0.186 nM
B19: ABT1-95-162 (other)
VL: B16 VL with Q27K, R89Q

- ND50 [2]: 0.075 nM
B20: ABT1-95-134 (other)
VL: B16 VL with R89A

- ND50 [2]: 0.15 nM
B21: ABT1-95-164 (other)
VL: B16 VL with I29G, R89Q

- ND50 [2]: 5000 nM
B22: ABT1-23 (other)
VH: EVQLLESGGGLVQPGGSLRLSCAASGFTFSSYPMEWVRQAPGKGLEWVSAIAWPGSMTYYADSVKGRFTISRDNSKNTLYLQMNSLRAEDTAVYYCAKTHRLFDYWGQGTLVTVSS

- ND50 [2]: 1000 nM
B23: ABT1-20 (other)
VH: EVQLLETGGGLVQPGGSLRLSCAASGFTFTPYRMGWVRQAPGKGLEWVSHIGIWGANTYYADSVKGRFTISRDNSKNTLYLQMNSLRAEDTAVYYCAKHPRPFDYWGQGTLVTVSS

- IC50 [1]: > 500 nM
B24: ABT1-146 (other)
VL: DIQMTQSPSSLSASVGDRVTITCRASQNIKTFLHWYQQKPGKAPKLLIYRVSHLQSGVPSRFSGSGSGTDFTLTISSLQPEDFATYYCQQEYRIPLTFGQGTKVEIKR
notes: VK dAb

- ND50 [2]: > 20000 nM
B25: ABT1-11 (other)
VL: DIQMTQSPSSLSASVGDRVTITCRASQSIPYNLRWYQQKPGKAPKLLIYSASRLQSGVPSRFSGSGSGTDFTLTISSLQPEDFATYYCQQGYSWPMTFGQGTKVEIKR

- ND50 [2]: 615 nM
B26: ABT1-95-51 (other)
VL: B16 VL with V30I, R89Q

- ND50 [2]: 0.1 nM
B27: ABT1-95-135 (other)
VL: B16 VL with R89Q, R93S

- ND50 [2]: 0.09 nM
B28: ABT1-95-137 (other)
VL: B16 VL with R89Q, R93L

- ND50 [2]: > 10000 nM
B29: ABT1-18 (other)
VL: DIQMTQSPSSLSASVGDRVTITCRASQSIQRWLAWYQQKPGKAPKLLIYFASQLQSGVPSRFSGSGSGTDFTLTISSLQPEDFATYYCQQLLRLPKTFGQGTKVEIKR

- IC50 [1]: 10 nM
B30: ABT1-141-8 (other)
VL: B3 VL with I19V, Y53W
notes: VK dAb

- IC50 [1]: 80 nM
B31: ABT1-141-3 (other)
VL: B3 VL with I19V, L38Q, A43T, S51Q, Y53H
notes: VK dAb

- IC50 [1]: 200 nM
B32: ABT1-142 (other)
VL: B25 VL with P30N, Y31D, N32V, R34A, K45R, R53Y, G91Y, Y92I, W94L, M96F
notes: VK dAb

- IC50 [1]: 50 nM
B33: ABT1-141-19 (other)
VL: B3 VL with I19V, L38Q, Y53W, P59R
notes: VK dAb

- IC50 [1]: > 100 nM
B34: ABT1-141-1 (other)
VL: B3 VL with I19V, L38Q, S51G, Y53W, F98L
notes: VK dAb

- IC50 [1]: 80 nM
B35: ABT1-141-18 (other)
VL: B3 VL with I19V, L38Q, A43V
notes: VK dAb

- IC50 [1]: 3 nM
B36: ABT1-141-46 (other)
VL: B3 VL with I19V, L38Q, Y53H, F96M, E105V
notes: VK dAb

- IC50 [1]: 30 nM
B37: ABT1-141-17 (other)
VL: B3 VL with I19V
notes: VK dAb

- ND50 [2]: 0.044 nM
B38: ABT1-67 (other)
VL: B29 VL with Q30H, W32S, A34R, F50H, Q53H, L91Y, L92K, L94R, K96S

- IC50 [1]: 10 nM
B39: ABT1-141-9 (other)
VL: B3 VL with M4V, I19V, L38Q, Y53W
notes: VK dAb

- IC50 [1]: 20 nM
B40: ABT1-141-6 (other)
VL: B3 VL with I19V, L38Q, Q89L
notes: VK dAb

- ND50 [2]: 0.2 nM
B41: ABT1-95-86 (other)
VL: B16 VL with S51T, R89Q

- ND50 [2]: 100 nM
B42: ABT1-221 (other)
VL: DIQMTQSPSSLSASVGDRVTITCRASQDIWPYLMWYQQKPGKAPKLLIYYSSMLQSGVPSRFSGSGSGTDFTLTISSLQPEDFATYYCQQFRRWPYTFGQGTKVEIKR

- ND50 [2]: 0.014 nM
B43: ABT1-95-181 (other)
VL: B16 VL with Q27K, L33M, S51V, R89L, V96P

- ND50 [2]: 0.005 nM
B44: ABT1-95-182 (other)
VL: B16 VL with Q27K, I29G, S51V, R89L, V96P

- ND50 [2]: 0.008 nM
B45: ABT1-95-177 (other)
VL: B16 VL with S50A

- ND50 [2]: 20 nM
B46: ABT1-155 (other)
VL: B25 VL with Q27S, S28P, P30V, Y31A, S50A, R53S, Q89T, S93V, M96P

- ND50 [2]: 0.133 nM
B47: ABT1-95-A2 (other)
VL: B16 VL with A25I, S26L, I29P, V30G, S51K, Y53F, R89Q

- ND50 [2]: 0.01 nM
B48: ABT1-95-174 (other)
VL: B16 VL with Q27R, S51V

Reference: US20090291081A1 (AbbVie / Abbott, published 2009)
